According to patent US20090214518A1:

Molecular target: Endothelin B receptor (ETRB) (human) (UniProt P24530)
Assay: cell-based or functional assay

Sequence of UniProt P24530 (P24530 27-442 limits assumed): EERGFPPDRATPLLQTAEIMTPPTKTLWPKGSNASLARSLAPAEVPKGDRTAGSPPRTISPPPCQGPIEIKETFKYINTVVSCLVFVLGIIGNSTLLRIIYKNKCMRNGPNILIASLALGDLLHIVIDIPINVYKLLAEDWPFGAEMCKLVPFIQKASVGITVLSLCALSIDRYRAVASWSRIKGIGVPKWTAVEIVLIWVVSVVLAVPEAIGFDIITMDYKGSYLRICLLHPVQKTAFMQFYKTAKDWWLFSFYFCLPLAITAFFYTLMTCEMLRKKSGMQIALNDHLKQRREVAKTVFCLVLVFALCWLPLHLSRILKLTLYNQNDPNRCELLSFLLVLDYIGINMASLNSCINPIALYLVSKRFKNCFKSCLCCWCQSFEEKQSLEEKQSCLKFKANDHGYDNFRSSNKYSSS

ICAM-1 mRNA in HUVEC (qRT-PCR): > 7 fold | adherence of activated human T cells to HUVEC: 40%
Substance: ETRB antagonist peptide, BQ-788
